Assay results from patent US20100222251A1, “MIXTURE COMPRISING AN AMYLIN PEPTIDE AND A PROTRACTED INSULIN” (Novo Nordisk A/S, priority 2007, published 2010).

Assay: Solubility versus pH curves (centrifugation, reverse HPLC)
Type: physicochemical
Description: Solubility versus pH curves were measured in the following way. A formulation was prepared and aliquotes were adjusted to pH values in the desired range by adding HClO4 or HCl and NaOH. These samples were left equilibrating at room temperature for 2-3 days. Then the samples were centrifuged. A small aliquot of each sample was withdrawn for reverse HPLC analysis for determination of the concentration of the proteins in solution. The pH of each sample was measured after the centrifugation, and the concentration of each protein was depicted versus the measured pH.

Compound | pH of full precipitation (below physiological pH) (Example 2 mix, 0.6 mM GlyA21 ArgB31 ArgB32 human insulin, 0.46 mM Zn(Ac)2, 30 mM phenol, 50 μM pramlintide) | pH of complete precipitation (below physiological pH) (Example 1, 0.6 mM GlyA21 ArgB31 ArgB32 human insulin, 0.46 mM Zn(Ac)2, 30 mM phenol) | precipitation versus pH compared to formulation of the insulin analogue alone (Example 2 mix, 0.6 mM insulin analogue, 0.46 mM Zn(Ac)2, 30 mM phenol, 50 μM pramlintide) | solubility state at pH 7 (Example 3 mix, pH 7, 0.6 mM GlyA21 ArgB31 ArgB32 human insulin, 0.3 mM Zn(Ac)2, 30 mM phenol, 100 μM pramlintide) | pH above which completely precipitated (FIG. 1, 0.6 mM GlyA21 ArgB31 ArgB32 human insulin, 0.46 mM Zn(Ac)2, 30 mM phenol)
CC[C@H](C)[C@H](NC(=O)[C@@H]1CCCN1C(=O)CNC(=O)[C@H](Cc1ccccc1)NC(=O)[C@H](CC(N)=O)NC(=O)[C@H](CC(N)=O)NC(=O)[C@H](CO)NC(=O)[C@H](CO)NC(=O)[C@H](Cc1c[nH]cn1)NC(=O)[C@@H](NC(=O)[C@H](CC(C)C)NC(=O)[C@H](Cc1ccccc1)NC(=O)[C@H](CC(N)=O)NC(=O)[C@H](C)NC(=O)[C@H](CC(C)C)NC(=O)[C@H](CCCNC(=N)N)NC(=O)[C@H](CCC(N)=O)NC(=O)[C@@H](NC(=O)[C@H](C)NC(=O)[C@@H]1CSSC[C@H](NC(=O)[C@@H](N)CCCCN)C(=O)N[C@@H](CC(N)=O)C(=O)N[C@@H]([C@@H](C)O)C(=O)N[C@@H](C)C(=O)N[C@@H]([C@@H](C)O)C(=O)N1)[C@@H](C)O)C(C)C)C(=O)N[C@@H](CC(C)C)C(=O)N1CCC[C@H]1C(=O)N1CCC[C@H]1C(=O)N[C@H](C(=O)N[C@@H](CC(N)=O)C(=O)N[C@H](C(=O)NCC(=O)N[C@@H](CO)C(=O)N[C@@H](CC(N)=O)C(=O)N[C@H](C(=O)N[C@@H](Cc1ccc(O)cc1)C(N)=O)[C@@H](C)O)C(C)C)[C@@H](C)O [pramlintide, Pro25 Pro28 Pro29-h-amylin] | < 7.4 pH |  |  |  | 
GlyA21 ArgB31 ArgB32 human insulin |  | < 7.4 pH | not changed | completely precipitated | > 6.5 pH
